Drawing on PMC2034485, this text covers Kd and stoichiometry N for three substances.

Data set [1] has as its target GST-SAP (Homo sapiens) (UniProt Q9NS91). The data set can be described thus: SPR.
The target in data set [2] is human Rad18 (Rad18 1–495) (human) (UniProt Q9NS91). The experiment in a line: SEC-MALS. (In gel filtration, larger molecules generally elute earlier.)

Sequence of GST-SAP (Homo sapiens) (Q9NS91 whole entry): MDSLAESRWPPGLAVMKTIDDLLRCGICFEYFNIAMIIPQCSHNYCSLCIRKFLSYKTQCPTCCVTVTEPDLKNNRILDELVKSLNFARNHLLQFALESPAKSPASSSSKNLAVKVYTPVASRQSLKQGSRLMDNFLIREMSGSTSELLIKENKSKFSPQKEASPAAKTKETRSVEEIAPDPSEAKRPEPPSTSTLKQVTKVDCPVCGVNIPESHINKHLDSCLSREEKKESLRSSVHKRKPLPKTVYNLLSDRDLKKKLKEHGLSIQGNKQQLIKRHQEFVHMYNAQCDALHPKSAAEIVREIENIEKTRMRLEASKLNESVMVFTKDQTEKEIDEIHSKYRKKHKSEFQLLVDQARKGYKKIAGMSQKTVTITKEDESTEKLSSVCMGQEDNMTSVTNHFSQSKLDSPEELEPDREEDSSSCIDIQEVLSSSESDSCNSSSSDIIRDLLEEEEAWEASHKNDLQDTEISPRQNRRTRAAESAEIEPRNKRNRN
Sequence of human Rad18 (Rad18 1–495) (Q9NS91 whole entry): as above

On to 40-mer dsDNA, for which the Kd (commonly the equilibrium constant for the complex coming apart) in data set [1] is 5.6 µM.

In data set [1], “TTTTTTTTTTTTTTTTTTTTTTTTTTTTTTTTTTTTTTTT [40T]” registered a Kd of 1.1 µM.

In the case of “human Rad18 (Rad18 1–495) (from UniProt Q9NS91 1-495) (natural protein)”, in data set [2], the stoichiometry N (commonly the number of molecules, sites or subunits per partner or assembly) stood at 2.
